For this data set, the target named is HIV-1 RT (HIV-1, UniProt P03366;P03366 600-1159;600-1039). As to the kind of experiment: off-rate (dissociation with trap); dissociates much more slowly than from dsDNA N1. As to conditions: protein: recombinant; copies: 1;1; label: 5'-32P on the 33 nt DNA primer; 33 nt DNA primer on 50 nt RNA template; template 5' overhang 15 nt, 3' overhang 2 nt.

B1: D33-R50 RNA/DNA hybrid primer-template (DNA:RNA)
DNA: TCCCCGGGTACCGAGCTCGAATTCGCCCTATAG
RNA: UUGUAAUACGACUCACUAUAGGGCGAAUUCGAGCUCGGUACCCGGGGAUC
Turning to B1, the binding result was “binds”.
